From article PMC10941548, “Tau induces inflammasome activation and microgliosis through acetylating NLRP3” (Clinical and Translational Medicine, 2024)

Assays:
[1] = target: T1, purified human WT full-length Tau protein (Tau441), His-tagged (human, UniProt P10636-8 1-441); experiment: co-IP; competition: TNB peptide (0, 25, 50, 100, 200 µM) and purified Tau441 added to LPS-pretreated BV-2 cells; loss of Tau in the anti-NLRP3 immunoprecipitate; details: both partners purified
T1 construct: also called purified Tau441 protein; recombinant Tau441; source: E. coli ROSETTA 2(DE3)PLYSS, purified (Ni-NTA) by HUABIO
T1 sequence (P10636 other isoform, or with tags, fused parts or gaps): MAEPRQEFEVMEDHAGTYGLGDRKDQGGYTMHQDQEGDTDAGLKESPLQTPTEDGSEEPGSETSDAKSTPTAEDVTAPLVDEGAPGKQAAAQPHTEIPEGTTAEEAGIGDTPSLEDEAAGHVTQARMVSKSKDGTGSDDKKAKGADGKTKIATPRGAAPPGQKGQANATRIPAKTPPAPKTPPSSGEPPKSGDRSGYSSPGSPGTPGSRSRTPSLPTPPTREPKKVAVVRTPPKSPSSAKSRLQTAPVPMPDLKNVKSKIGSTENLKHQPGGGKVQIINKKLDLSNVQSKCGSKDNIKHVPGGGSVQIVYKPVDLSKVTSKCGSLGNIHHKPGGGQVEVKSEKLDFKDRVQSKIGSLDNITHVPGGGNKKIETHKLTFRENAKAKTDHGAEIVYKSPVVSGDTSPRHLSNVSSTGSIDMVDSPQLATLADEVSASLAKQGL

[2] = target: T1, purified human WT full-length Tau …; experiment: pull-down; Flag-NLRP3 (WT or mutant) immunoprecipitated from HEK-293T with anti-Flag on protein A/G agarose beads; incubated with 50 nM purified Tau441 and 1 mM acetyl CoA at 37°C for 2 h in 50 mM HEPES pH 8.0, 10 mM sodium butyrate, 1 mM DTT, 10% glycerol; blot with anti-Tau5 and anti-NLRP3; details: both partners purified

B1: Tau–NLRP3-binding blocking (TNB) peptide (peptide)
peptide: LEDLEDVDLKKFKMHLEDYPP
notes: stretch of NLRP3 around K21/K22/K24 in the PYD domain; 2574.89 Da; An FITC-labelled form (FITC-TNB) was used only for microscopy; also called peptide TNB; source: synthetic peptide (Bioyeargene Biosciences, Fmoc solid-phase, purity 95.93%)
[1]
  binding result: binds

B2: Flag-mouse NLRP3 (GV362-EGFP-FLAG-mouse NLRP3), wild type (natural protein, UniProt Q8R4B8 1-1033, looked up)
chain: MTSVRCKLAQYLEDLEDVDLKKFKMHLEDYPPEKGCIPVPRGQMEKADHLDLATLMIDFNGEEKAWAMAVWIFAAINRRDLWEKAKKDQPEWNDTCTSHSSMVCQEDSLEEEWMGLLGYLSRISICKKKKDYCKMYRRHVRSRFYSIKDRNARLGESVDLNSRYTQLQLVKEHPSKQEREHELLTIGRTKMRDSPMSSLKLELLFEPEDGHSEPVHTVVFQGAAGIGKTILARKIMLDWALGKLFKDKFDYLFFIHCREVSLRTPRSLADLIVSCWPDPNPPVCKILRKPSRILFLMDGFDELQGAFDEHIGEVCTDWQKAVRGDILLSSLIRKKLLPKASLLITTRPVALEKLQHLLDHPRHVEILGFSEAKRKEYFFKYFSNELQAREAFRLIQENEVLFTMCFIPLVCWIVCTGLKQQMETGKSLAQTSKTTTAVYVFFLSSLLQSRGGIEEHLFSDYLQGLCSLAADGIWNQKILFEECDLRKHGLQKTDVSAFLRMNVFQKEVDCERFYSFSHMTFQEFFAAMYYLLEEEAEGETVRKGPGGCSDLLNRDVKVLLENYGKFEKGYLIFVVRFLFGLVNQERTSYLEKKLSCKISQQVRLELLKWIEVKAKAKKLQWQPSQLELFYCLYEMQEEDFVQSAMDHFPKIEINLSTRMDHVVSSFCIKNCHRVKTLSLGFFHNSPKEEEEERRGGRPLDQVQCVFPDTHVACSSRLVNCCLTSSFCRGLFSSLSTNRSLTELDLSDNTLGDPGMRVLCEALQHPGCNIQRLWLGRCGLSHQCCFDISSVLSSSQKLVELDLSDNALGDFGIRLLCVGLKHLLCNLQKLWLVSCCLTSACCQDLALVLSSNHSLTRLYIGENALGDSGVQVLCEKMKDPQCNLQKLGLVNSGLTSICCSALTSVLKTNQNFTHLYLRSNALGDTGLRLLCEGLLHPDCKLQMLELDNCSLTSHSCWNLSTILTHNHSLRKLNLGNNDLGDLCVVTLCEVLKQQGCLLQSLQLGEMYLNRETKRALEALQEEKPELTIVFEISW
notes: NOD-like receptor pyrin domain containing 3 (NLRP3), mouse, fusion with Flag; Plasmid from Genechem; also called GV362-EGFP-Flag-NLRP3; NLRP3-protein A/G agarose beads complexes; source: HEK-293T, transfected 48 h, immunoprecipitated with anti-Flag antibody on protein A/G agarose beads
[2]
  binding result: binds
